Data taken from PMC10917881, “Biochemical characterization of L-asparaginase isoforms from Rhizobium etli—the boosting effect of zinc” (Frontiers in Chemistry, 2024).

Experiments:
[1] = molecular target: Rhizobium etli L-asparaginase ReAIV (constitutive, thermostable), wild type (Rhizobium etli); assay: mass photometry; Refeyn One mass photometer; protein diluted to 20-50 nM; buffers 50 mM Tris-HCl pH 8.0 or 30 mM carbonate pH 9.0; absence or presence of Zn2+ and/or Mg2+; dimer to monomers
[2] = molecular target: Rhizobium etli L-asparaginase ReAV (inducible, thermolabile), wild type (Rhizobium etli); assay: as above

## Rhizobium etli L-asparaginase ReAIV (constitutive, thermostable), wild type (enzyme)
[1]
  stoichiometry N: 2

## Rhizobium etli L-asparaginase ReAV (inducible, thermolabile), wild type (enzyme)
[2]
  stoichiometry N: 2
